Test results from article PMC4933246, “Alanine Expansions Associated with Congenital Central Hypoventilation Syndrome Impair PHOX2B Homeodomain-mediated Dimerization and Nuclear Import*” (The Journal of Biological Chemistry, 2016).

Target: the molecule itself
Assay: two-hybrid; mammalian two-hybrid (CheckMate, Promega) in HeLa cells; GAL4 BD fusion (pBIND) and VP16 AD fusion (pACT), 80 fmol each, with 160 fmol pG5LUC; Dual-Luciferase assay

B1: PHOX2A fused to GAL4 BD or VP16 AD (natural protein)
chain: not shown
notes: PHOX2A, human; Each copy carries either GAL4 BD or VP16 AD; also called GAL4 BD-PHOX2A; VP16 AD-PHOX2A; source: mammalian two-hybrid fusion, transfected HeLa cells
  luciferase activity relative to that of the PHOX2B fusion constructs: > 2 fold
